In publication PMC7752914:

Tests used:
[1] = molecular target: α2βγ heterotetramer of wild-type HsIDH3 (human) (UniProt P50213); assay: SEC-MALS; low concentration (2 mg/ml); Superdex 200 10/300 GL, 24 °C, 10 mM HEPES pH 7.4, 200 mM NaCl, 5 mM β-ME
[2] = molecular target: α2βγ heterotetramer of wild-type HsIDH3 (human) (UniProt P50213); assay: SEC-MALS; high concentration (12 mg/ml); Superdex 200 10/300 GL, 24 °C, 10 mM HEPES pH 7.4, 200 mM NaCl, 5 mM β-ME

stoichiometry N (heterotetramers in the heterooctamer) [1]: 2
stoichiometry N (heterotetramers in the heterooctamer) [2]: 2
Substance: α2βγ heterotetramer of wild-type HsIDH3 (from UniProt P50213 28-366; O43837 35-385; P51553 40-393) (complex)
